Experimental data published in paper PMC4772626.
“And” between values parts separate entries of the source, which are not always exact repeats. Equal entries are not always repeated.

Target: SMV helper component protease tagged with the Flag epitope at the N-terminus (soybean mosaic virus strain G7H)
Assay: affinity purification with mass spectrometry; crude extract of upper symptomatic soybean leaves at 15 dpi (20 mM Tris-HCl pH 7.5, 300 mM NaCl, 5 mM MgCl2, 5 mM dithiothreitol, 0.5% Triton X-100); anti-Flag antibody-conjugated agarose beads 16 h at 4 °C, five washes; 10% SDS-PAGE, Coomassie blue, dominant bands excised and identified by LC-MS/MS; Flag-tagged GFP as negative control

SMV helper component protease tagged with the Flag epitope at the N-terminus (natural protein)
stoichiometry N: 4 and 2
